Data as given in the supplement of paper PMC9170038.

Test system: MS2 coat protein
Experiment: apparent KD of MS2 coat protein; designed switch direction (-1 OFF switch, 1 ON switch): -1; higher = weaker reporter binding
Summary of the method: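 On Illumina chips, designed RNA switches with common flanks were made by stalled E. coli RNA polymerase. Titrations with SNAP-549-labelled MS2 coat protein, doubling from 0.7 or 1.5 nM to 3 µM, were done with no input, with 200 uM small-molecule ligand, or with an oligonucleotide input. Apparent KD is the median per design over clusters, from curve fits of normalised cluster fluorescence.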

[1] = input ligand: microRNA oligo, concentration not stated
[2] = Eterna round: R95, input ligand: FMN 200 uM
[3] = Eterna round: R95, input ligand: microRNA oligo, concentration not stated
[4] = Eterna round: R95, input ligand: none

Sequence	apparent KD of MS2 coat protein (input ligand: FMN 200 uM) [nM]	apparent KD of MS2 coat protein [1] [nM]	apparent KD of MS2 coat protein (input ligand: none) [nM]	apparent KD of MS2 coat protein [2] [nM]	apparent KD of MS2 coat protein [3] [nM]	apparent KD of MS2 coat protein [4] [nM]
UUGUUAUAUGUAGGAUAUGCGUGUUGUUAUUAGGCAGAAGGACAUGAGGAUCACCCAUGUAUGUUGUUGUUAUAUAUUAUAUAU [Title] (Eterna round: R96, puzzle: Exclusion NG 1)	56.3	28.3	58.8	–	–	–
UUGUUCUGAGGAUAUACAUGAGGAUCACCCAUGUGUUUCAGCUAGGAGACUAGCGAAAGUAGAAGGCUGUACUC [salish99_ex3_r4_017] (Eterna round: R97, puzzle: Exclusion 3)	26.9	–	24.9	–	–	–
UUUAAGGGAAUUAAGAUCACAUGAGGAUCACCCAUGUAUAUAUAGGAUAUCAGCUCGUUUAGAGCUGAGAAGGAUAUAUACAUA [ExNG3/6-A2] (Eterna round: R96, puzzle: Exclusion NG 3)	162	83.8	155	–	–	–
UUUAAGGUAAUUAAGAUCACAUGAGGAUCACCCAUGUAUAUAUAGGAUAUCAGCUCGAUUAGAGCUGAGAAGGAUAUAUACAUA [ExNG3/6-C1] (Eterna round: R96, puzzle: Exclusion NG 3)	66.1	33.3	142	–	–	–
UUUAAUUGUCACAUGGGUGACAUGAGGAUCACCCAUGUCACAAGCUUUUUGUUCGUCUUAUAAUUAACCCAUGUGAC [Stov1/12-B1] (Eterna round: R97, puzzle: Sensor, turn-off variant 1)	13.9	–	13.1	–	–	–
UUUAAUUUAAUUAAGAUCACAUGAGGAUCACCCAUGUAUAUAUAGGAUAUCAGCUCGUGUAGAGCUGAGAAGGAUAUAUACAUA [ExNG3/4-A3] (Eterna round: R96, puzzle: Exclusion NG 3)	46	35.9	101	–	–	–
UUUAAUUUUUUUUUUUUACAAGCUUUUUGCUCGUCUUAUACAUGAGGAUCACCCAUGUAAAUGGAGGAUAAAUUAUC [JMF 29] (puzzle: Sensor v3, turn-off variant 2)	–	–	–	22.4	41.1	19.7
UUUAAUUUUUUUUUUUUACAAGCUUUUUGCUCGUCUUAUACAUGAGGAUCACCCAUGUAAAUGGAGGGUAAAUUAUC [JMF 83] (puzzle: Sensor v3, turn-off variant 2)	–	–	–	14.8	32	11.1
UUUAAUUUUUUUUUUUUACAAGCUUUUUGCUCGUCUUAUACAUGAGGAUCACCCAUGUAAGUGGAAGAUAAAUUAUC [JMF 10] (puzzle: Sensor v3, turn-off variant 2)	–	–	–	18.2	21.4	16.5
UUUAAUUUUUUUUUUUUACAAGCUUUUUGCUCGUCUUAUACAUGAGGAUCACCCAUGUAGGUGGGAAGUAAAUUAUC [JMF 57] (puzzle: Sensor v3, turn-off variant 2)	–	–	–	33	97.5	37.5
UUUAAUUUUUUUUUUUUACAAGCUUUUUGCUCGUCUUAUACAUGAGGAUCACCCAUGUGAAUGGAAGAUAAAUUAUC [JMF 8] (puzzle: Sensor v3, turn-off variant 2)	–	–	–	17.8	16.3	18.6
UUUAAUUUUUUUUUUUUACAAGCUUUUUGCUCGUCUUAUACAUGAGGAUCACCCAUGUGAAUGGAGGGUAAAUUAUC [JMF 84] (puzzle: Sensor v3, turn-off variant 2)	–	–	–	19.4	42.5	16.8
UUUAAUUUUUUUUUUUUACAAGCUUUUUGCUCGUCUUAUACAUGAGGAUCACCCAUGUGGGUGGGAAGUAAAUUAUC [JMF 56] (puzzle: Sensor v3, turn-off variant 2)	–	–	–	59	12.6	110
UUUACAAGCUAUAGAUCCCACAUGAGGAUCACCCAUGUUGCUGCCGUGAGGUAGCUUUUAACUAUUGCUCGUCUUAU [JL TOV1 3.36] (Eterna round: R97, puzzle: Sensor, turn-off variant 1)	150	–	181	–	–	–
UUUAGUUUAGGAUAUGUAGAUUUUAACAUGAGGAUCACCCAUGUAGAUCCUGAAUUAACUACAGAAGGAAACAUUU [Mod of Brourd 13 - Jieux - Exclusion 5] (Eterna round: R97, puzzle: Exclusion 5)	514	–	123	–	–	–
UUUAUAUAUGAAGGAUAUACUUAACAUGAGGAUCACCCAUGUGGUGUUGUGAGUGAGUGAGUUUAGUAGAAGGUCAAUGAUUUU [JMF's solution 70] (Eterna round: R96, puzzle: Exclusion NG 2)	810	306	360	–	–	–

Sequence	apparent KD of MS2 coat protein (input ligand: FMN 200 uM) [nM]	apparent KD of MS2 coat protein [1] [nM]	apparent KD of MS2 coat protein (input ligand: none) [nM]	apparent KD of MS2 coat protein [2] [nM]	apparent KD of MS2 coat protein [3] [nM]	apparent KD of MS2 coat protein [4] [nM]
UUUAUGUCAGGAUAUACAUGAGGAUCACCCAUGUAUACCUUAAGGUAUACAUGGGAAUGUAGAAGGGACCUCCU [Omei Ex3 Pseudoloop 8] (Eterna round: R97, puzzle: Exclusion 3)	26.6	–	46.7	–	–	–
UUUAUGUCAGGAUAUGAUUAGAUCUACUUCGGUAGAUCUAAUCAGAAGGGACAUGAGGAUCACCCAUGUUUUUU [Ex4 - 3 - 16] (puzzle: Exclusion 4)	–	–	–	–	41.6	–
UUUAUGUGAGGAUAUAGUACUCCUUCUAUUAUUUUUGAGUACUAGAAGGCACAUGAGGAUCACCCAUGUAGUAC [Ex4 - 3 - 38] (puzzle: Exclusion 4)	–	–	–	–	22.1	–
UUUCUUGGGCAAGGAUAUCCUGUGCGGUUCCGGCUCGUGUCUGUCACAUGAGGAUCACCCAUGUGGGAGAAGGUGCCUGCGGUU [Design 83] (Eterna round: R96, puzzle: Exclusion NG 2)	15.4	10.7	15.6	–	–	–
UUUGAUGUUGAGGAUAUGCUUUUUUUUAUUAUAGCAGAAGGCGAUACAUGAGGAUCACCCAUGUUCAUGGCUUU [JR_E6_Sub098] (puzzle: Exclusion 6)	–	–	–	–	14.1	–
UUUGGGCAAGCAUGAUCCCACAUGAGGAUCACCCAUGUGUUCGUCUUAUAGGCUGCUGAGGCUUUUGCCUCGGUGGC [LRO Sensor-off var1-01 loose mod of D91 from Mat747] (Eterna round: R97, puzzle: Sensor, turn-off variant 1)	751	–	965	–	–	–
UUUGUACAUGAGGAUCACCCAUGUCAGGAUAUGUCAUCGCCGUCUGCCAGACGGCGUCACAGAAGGGACAUGCA [EX1 C.16] (Eterna round: R97, puzzle: Exclusion 1)	104	–	34.1	–	–	–
UUUGUAUAGGUAGGAUAUACUUUCAAUUUUUUUUUCCUUACAUGAGGAUCACCCAUGUUUACAUUGUAGAAGGACCUCAUUGUU [JR_ExcNG2_Sub049] (Eterna round: R96, puzzle: Exclusion NG 2)	–	325	–	–	–	–
UUUGUUGUUGUGAGGAUAUCGUUGUUAUUUUGAAACGAGAAGGCACAUGAGGAUCACCCAUGUUUGUUGUUGGU [JR_BMOE4_Sub059] (puzzle: Brourd's mod of Exclusion 4)	–	–	–	–	48.8	–
UUUGUUUAUGUAGGAUAUGCCUGGCGUGCCUUCGCAGAAGGACAUGAGGAUCACCCAUGUAUUGCGGUCUGCGUUCAGAUCGCG [salish99_ExNG1_r4_029] (Eterna round: R96, puzzle: Exclusion NG 1)	52	34.8	43.2	–	–	–
UUUGUUUAUGUAGGAUAUGCCUGGCGUGCCUUUGCAGAAGGACAUGAGGAUCACCCAUGUAACAUGAGGCUCACCCAUGUCGCC [salish99_ExNG1_r04_113] (Eterna round: R96, puzzle: Exclusion NG 1)	134	91.6	165	–	–	–
UUUGUUUAUGUAGGAUAUGCCUGGCGUGCCUUUGCAGAAGGACAUGAGGAUCACCCAUGUAACAUGAGGCUCACCCAUGUCGCU [salish99_ExNG1_r04_111] (Eterna round: R96, puzzle: Exclusion NG 1)	240	180	292	–	–	–
UUUUAACAAGCGAGGUCCUACAUGAGGAUCACCCAUGUAUGUCAUGGAUUCCAUGGUCUUUUUGCUCGUCUUGUGUG [jl TITIN mod 8] (Eterna round: R97, puzzle: Sensor, turn-off variant 1)	103	–	105	–	–	–
UUUUAACAUGAGGAUCACCCAUGUGAGGAUAUCGAAAUUUAUAUUAAUAUUAUUAAAACGAGAAGGCACAUUUU [JMF 35] (puzzle: Exclusion 1)	–	–	–	–	62.9	–
UUUUAACAUGAGGAUCACCCAUGUGAGGAUAUCGAAAUUUAUAUUUAUAUUAAUAUAUCGAGAAGGCACAUUUU [JMF 80] (puzzle: Exclusion 1)	–	–	–	–	93.1	–
